The results in this text go back to US12679870 (US Dept. of Health and Human Services, dated 2026).

The test has as its target T1, HMPV F v3BΔ12 (V84C/A249C, A140C/A147C, substitution of HMPV F positions 89-112 to GSGGSG) (human metapneumovirus, B2 strain …).
T1 construct: That entry starts at K20, has no tags, and differs from the v3-B backbone at positions 185 and 323; also called HMPV F v3B with the L0.1 F1/F2 linker
T1 chain: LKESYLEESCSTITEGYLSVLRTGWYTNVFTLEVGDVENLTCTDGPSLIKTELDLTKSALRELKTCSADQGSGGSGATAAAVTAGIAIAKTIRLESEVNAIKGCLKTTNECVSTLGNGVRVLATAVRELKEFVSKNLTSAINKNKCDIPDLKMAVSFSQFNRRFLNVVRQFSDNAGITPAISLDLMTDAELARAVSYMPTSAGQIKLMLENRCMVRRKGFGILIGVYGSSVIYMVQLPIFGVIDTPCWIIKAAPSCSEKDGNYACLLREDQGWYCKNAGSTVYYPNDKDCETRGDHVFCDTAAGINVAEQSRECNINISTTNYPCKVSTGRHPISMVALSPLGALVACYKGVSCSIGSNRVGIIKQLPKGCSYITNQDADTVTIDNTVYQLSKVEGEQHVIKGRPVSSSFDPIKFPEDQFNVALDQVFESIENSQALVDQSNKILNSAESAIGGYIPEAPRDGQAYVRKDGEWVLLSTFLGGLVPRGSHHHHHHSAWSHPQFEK
Put plainly: antigenic assessment of F1/F2 linker variants, FIG. 13.

B1: MPE8 antibody (Fab, V domains shown)
VH: EVQLVESGGGLVKPGGSLRLSCAASGFTFSSYSMNWVRQAPGKGLEWVSSISASSSYSDYADSAKGRFTISRDNAKTSLFLQMNSLRAEDTAIYFCARARATGYSSITPYFDIWGQGTLVTVSS
VL: QSVVTQPPSVSGAPGQRVTISCTGSSSNIGAGYDVHWYQQLPGTAPKLLIYDNNNRPSGVPDRFSASKSGTSASLAITGLQAEDEADYYCQSYDRSLSGVFGTGTKVTVL
notes: The text calls it an antibody; also called prefusion specific antibody MPE8
Take B1: the “fold increase in binding compared to v1B” value was more than 10 fold.
